Laboratory results from patent US20220403028A1 (NUMAB THERAPEUTICS, published 2022).
Substitutions are numbered along the chain they refer to.

B1: PRO389 (IL23R×CD3 1st gen Numab) (bispecific antibody)
chain: DIQMTQSPSSLSASVGDRVTITCQASENIYSFLAWYQQKPGKAPKLLIYSASKLAAGVPSRFSGSGSGTDFTLTISSLQPEDFATYYCQQTNRYSNPDIYNVFGTGTKVTVLGGGGGSEVQLVESGGGLVQPGGSLRLSCAASGFPLSSYAMIWVRQAPGKGLEWIGMILRAGNIYYASWVKGRFTISRDNSKNTVYLQMNSLRAEDTAVYYCARRHYNREGYPIGIGDLWGQGTLVTVSSGGGGSGGGGSGGGGSGGGGSDIQMTQSPSSLSASVGDRVTITCQSSESVYNNKRLSWYQQKPGKAPKLLIYTASSLASGVPSRFSGSGSGTDFTLTISSLQPEDFATYYCQGEFTCSNADCFTFGTGTKVTVLGGGGGSEVQLVESGGGLVQPGGSLRLSCAASGIDFNSNYYMCWVRQAPGKGLEWIGCIYVGSHVNTYYANWAKGRFTISRDNSKNTVYLQMNSLRAEDTAVYYCATSGSSVLYFKFWGQGTLVTVSS
B2: 28-21-D09-sc18 (scFv)
scFv: DIQMTQSPSSLSASVGDRVTITCQSSQSVFSNNYLAWYQQKPGQSPKRLIYSASTLASGVPSRFSGSGSGTHFTLTISSLQPEDFATYYCLGSYACSSADCYVFGTGTKVTVLGGGGGSGGGGSGGGGSGGGGSEVQLVESGGGLVQPGGSLRLSCAASGFSLSSYDMSWVRQAPGKGLEWIGASYASGPTYYASWAKGRFTISRDNSKNTVYLQMNSLRAEDTAVYYCARGGWTGTSHSNIWGQGTLVTVSS
B3: 28-21-D09-sc04 (scFv)
scFv: B2 scFv with Y38F, H72D, E180A, V226T, Y228F
B4: 28-21-D09-sc16 (scFv)
scFv: B2 scFv with H72D, V226T, Y228F
B5: 28-21-D09-sc15 (scFv)
scFv: B2 scFv with V226T, Y228F
B6: 28-21-D09-sc19 (scFv)
scFv: B2 scFv with H72D

These binders were tested against human CD3ε on T cells (human, UniProt P07766 23-207) (assay: cell-based or functional assay).
Chain of human CD3ε on T cells (P07766 23-207 limits assumed): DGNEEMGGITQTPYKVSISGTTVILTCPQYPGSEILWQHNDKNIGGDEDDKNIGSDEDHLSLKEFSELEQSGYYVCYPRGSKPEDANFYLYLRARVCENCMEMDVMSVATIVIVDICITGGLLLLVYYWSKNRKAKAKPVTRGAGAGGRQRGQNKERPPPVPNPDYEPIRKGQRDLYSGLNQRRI

Row | Binder | EC50 of specific target cell lysis (IL-23R-expressing CHO-K1 target cells, human PBMCs, flow cytometry cytotoxicity assay) [nM]
1 | B1 | 0.0053

These binders were tested against cynomolgus CD3ε (recombinant, coupled to the SPR chip) (cynomolgus (Macaca fascicularis)) (UniProt Q95LI5) (assay: SPR (Biacore T200), CD3ε amine-coupled to CM5 chip, scFv as analyte, 1:1 Langmuir fit).

Row | Kd [nM] | Binder
2 | 14.2 | B2
3 | 4.78 | B3
4 | 16.6 | B4
5 | 13.7 | B5
6 | 19.5 | B6
